Laboratory results from publication PMC11363328, “Identification of Rocaglate Acyl Sulfamides as Selective Inhibitors of Glioblastoma Stem Cells”.

Key:
Conditions in all cases: protein: recombinant; single strand
[1] = target: T1, eIF4A1 (UniProt P60842 1-406); test: fluorescence polarization, protein titration; 50 uM (-)-5, 1 mM ATP; EC50 for complex formation, range for all three compounds; FP: 14.4 mM HEPES-KOH pH 8, 108 mM NaCl, 1 mM MgCl2, 14.4% glycerol, 0.1% DMSO, 2 mM DTT, 1 mM ATP, 10 nM probe, room temperature, 10 min
[2] = target: T1, eIF4A1; test: fluorescence polarization, protein titration; 50 uM (-)-7, 1 mM ATP; EC50 for complex formation, range for all three compounds; FP: 14.4 mM HEPES-KOH pH 8, 108 mM NaCl, 1 mM MgCl2, 14.4% glycerol, 0.1% DMSO, 2 mM DTT, 1 mM ATP, 10 nM probe, room temperature, 10 min
[3] = target: T1, eIF4A1; test: fluorescence polarization, protein titration; 50 uM (-)-20, 1 mM ATP; EC50 for complex formation, range for all three compounds; FP: 14.4 mM HEPES-KOH pH 8, 108 mM NaCl, 1 mM MgCl2, 14.4% glycerol, 0.1% DMSO, 2 mM DTT, 1 mM ATP, 10 nM probe, room temperature, 10 min

Measured: apparent K (half saturation)

T1 sequence (P60842 whole entry): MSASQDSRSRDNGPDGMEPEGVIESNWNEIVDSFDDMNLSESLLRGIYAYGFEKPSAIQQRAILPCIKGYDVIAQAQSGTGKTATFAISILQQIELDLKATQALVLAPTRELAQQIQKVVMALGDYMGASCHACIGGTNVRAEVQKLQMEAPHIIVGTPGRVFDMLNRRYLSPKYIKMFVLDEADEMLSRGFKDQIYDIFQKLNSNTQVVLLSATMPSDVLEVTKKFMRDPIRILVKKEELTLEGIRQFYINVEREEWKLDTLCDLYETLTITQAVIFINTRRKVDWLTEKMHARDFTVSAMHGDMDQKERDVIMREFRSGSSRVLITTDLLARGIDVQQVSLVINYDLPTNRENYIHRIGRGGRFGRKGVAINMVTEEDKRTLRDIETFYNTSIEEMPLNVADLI

AGAGAGAGAGAGAGAG (ssRNA) [FAM-r(AG)8]
~245 nM: [1] | [2] | [3]
